Target: T1, IrtA, full length (subunit of full-length Mtb IrtAB) (Mycobacterium tuberculosis H37Rv, UniProt P9WQJ9 1-859)
T1 construct: also called Rv1348
T1 sequence: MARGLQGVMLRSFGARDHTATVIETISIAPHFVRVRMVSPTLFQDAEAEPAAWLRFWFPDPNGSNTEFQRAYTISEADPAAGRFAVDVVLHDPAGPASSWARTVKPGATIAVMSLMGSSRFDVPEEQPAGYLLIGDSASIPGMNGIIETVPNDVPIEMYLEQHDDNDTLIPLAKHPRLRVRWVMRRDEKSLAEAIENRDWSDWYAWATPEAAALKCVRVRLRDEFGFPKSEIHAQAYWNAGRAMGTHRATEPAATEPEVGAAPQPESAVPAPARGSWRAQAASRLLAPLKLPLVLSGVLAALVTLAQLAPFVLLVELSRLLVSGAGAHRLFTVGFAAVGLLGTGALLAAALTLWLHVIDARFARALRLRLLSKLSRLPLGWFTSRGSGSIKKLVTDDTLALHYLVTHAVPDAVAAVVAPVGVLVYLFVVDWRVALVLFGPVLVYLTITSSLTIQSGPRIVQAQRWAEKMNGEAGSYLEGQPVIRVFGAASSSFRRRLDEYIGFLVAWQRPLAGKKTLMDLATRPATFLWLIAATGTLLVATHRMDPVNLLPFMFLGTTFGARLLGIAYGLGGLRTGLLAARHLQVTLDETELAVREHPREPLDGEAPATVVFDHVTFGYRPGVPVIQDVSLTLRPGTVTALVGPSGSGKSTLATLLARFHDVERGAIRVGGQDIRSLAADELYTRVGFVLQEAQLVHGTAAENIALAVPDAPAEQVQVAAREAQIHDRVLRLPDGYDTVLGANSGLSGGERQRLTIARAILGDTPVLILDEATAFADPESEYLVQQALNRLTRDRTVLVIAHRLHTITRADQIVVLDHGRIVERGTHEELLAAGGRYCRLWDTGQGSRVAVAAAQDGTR
Assay: cryo-EM structure; full-length IrtAB without nucleotide, in digitonin, 20 mmol/L MES pH 6.5, 150 mmol/L NaCl; inward-facing
Details: both partners purified

B1: IrtB with C-terminal 10x His tag (subunit of Mtb IrtAB) (natural protein)
chain: MIRTWIALVPNDHRARLIGFALLAFCSVVARAVGTVLLVPLMAALFGEAPQRAWLWLGWLSAATVAGWVLDAVTARIGIELGFAVLNHTQHDVADRLPVVRLDWFTAENTATARQAIAATGPELVGLVVNLVTPLTSAILLPAVIALALLPISWQLGVAALAGVPLLLGALWASAAFARRADTAADKANTALTERIIEFARTQQALRAARRVEPARSLVGNALASQHTATMRLLGMQIPGQLLFSIASQLALIVLAGTTAALTITGTLTVPEAIALIVVMVRYLEPFTAVSELAPALESTRATLGRIGSVLTAPVMVAGSGTWRDGAVVPRIEFDDVAFGYDGGSGPVLDGVSFCLQPGTTTAIVGPSGCGKSTILALIAGLHQPTRGRVLIDGTDVATLDARAQQAVCSVVFQHPYLFHGTIRDNVFAADPGASDDQFAQAVRLARVDELIARLPDGANTIVGEAGSALSGGERQRVSIARALLKAAPVLLVDEATSALDAENEAAVVDALAADPRSRTRVIVAHRLASIRHADRVLFVDDGRVVEDGSISELLTAGGRFSQFWRQQHEAAEWQILAE
notes: also called Rv1349
binding result: binds

Source: publication PMC10246721, “Cryo-EM structures for the Mycobacterium tuberculosis iron-loaded siderophore transporter IrtAB” (Protein & Cell, 2022)
